These results are taken from article PMC5285506.

For the series, the system named is T1, Rob (Staphylococcus aureus FK300 (rsbU-repaired NCTC8325-4 derivative)), ORF:92c4d64d.
T1 sequence: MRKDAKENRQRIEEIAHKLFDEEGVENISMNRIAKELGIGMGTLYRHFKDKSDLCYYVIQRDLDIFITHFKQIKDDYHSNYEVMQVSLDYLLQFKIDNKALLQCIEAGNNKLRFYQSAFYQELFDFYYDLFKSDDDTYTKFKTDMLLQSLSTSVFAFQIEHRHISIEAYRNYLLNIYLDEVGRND
The experiment in a line: EMSA. The following applies: 10 mM HEPES pH 8.0, 60 mM KCl, 4 mM MgCl2, 0.1 mM EDTA, 0.1 mg/ml BSA, 0.25 mM DTT, 5% glycerol, 1 ug salmon sperm DNA and 1 ug poly(dI-dC) per 20 ul, room ….

Turning to “ACAAATATTTCCGTTTAATTATAACAACAATCTATTGCAAATTAAAATACTATCAATTACCATATGGCTTACAACCTAACTAACGAAAGGTAGGTAAAGGAATTGCAA (double strand) [SHORT-1 (108 bp)]”, the binding entry is given as “binds”. For the sequence “TTGCAATTCCTTTACCTACCTTTCGTTAGTTAGGTTGTAAGCCATATGGTAATTGATAGTATTTTAATTTGCAATAGATT (double strand) [SHORT-2]”, the binding entry is “no binding”.
